In paper PMC10465357:

Molecular target: 14-3-3 proteins
Test: Western blot of purified virions, quantified
Details: read off a plot

Row | Substance | ratio to parent
1 | UL32 (also known as pp150) 3/4mut | 0.06
2 | UL32 (also known as pp150) 3mut | 0.48
3 | UL32 (also known as pp150) 4/5mut | 0.02
